According to publication PMC6973309 (mAbs, 2020):

Target: BI 655089 (llama)
Experiment: flow cytometry on cells

B1: human CX3CR1 (receptor, UniProt P49238 1-355, looked up)
chain: MDQFPESVTENFEYDDLAEACYIGDIVVFGTVFLSIFYSVIFAIGLVGNLLVVFALTNSKKPKSVTDIYLLNLALSDLLFVATLPFWTHYLINEKGLHNAMCKFTTAFFFIGFFGSIFFITVISIDRYLAIVLAANSMNNRTVQHGVTISLGVWAAAILVAAPQFMFTKQKENECLGDYPEVLQEIWPVLRNVETNFLGFLLPLLIMSYCYFRIIQTLFSCKNHKKAKAIKLILLVVIVFFLFWTPYNVMIFLETLKLYDFFPSCDMRKDLRLALSVTETVAFSHCCLNPLIYAFAGEKFRRYLYHLYGKCLAVLCGRSVHVDFSSSESQRSRHGSVLSSNFTYHTSDGDALLLL
Q: Does B1 bind?
A: Result: binds
